Laboratory results published in doi:10.64898/2025.12.01.691523.

Biological target: Anopheles culicifacies ferritin heavy chain homolog (AcFtnHCH), recombinant, refolded (Anopheles culicifacies)
Assay: native gel or EMSA

stoichiometry N: 24
Substance: Anopheles culicifacies ferritin heavy chain homolog (AcFtnHCH), recombinant, refolded (natural protein)
